Test results as given in the Human Domainome abundance scans (Beltran et al. 2025).
± gives the uncertainty stated by the source.

B1: POU domain, class 6, transcription factor 2, residues 609 to 663; numbered along this chain, P78424 (parent)
chain: KRRTSFTPQALEILNAHFEKNTHPSGQEMTEIAEKLNYDREVVRVWFCNKRQALK

Variants of: B1
Assay: abundance fitness (aPCA) (normalised: wild type 0, dead -1); higher = more abundant; growth selection in yeast, the domain comes from the species named
Conditions: Homo sapiens

Going from P24L to P24H, the abundance fitness falls from -0.394 ± 0.064 to -0.905 ± 0.17.

First: P24M
Second: P24D
The abundance fitness of the first is higher: -0.327 ± 0.074 for the first, -0.792 ± 0.12 for the second.

First: P24T
Second: P24W
The abundance fitness of the first is lower: -0.641 ± 0.11 for the first, -0.317 ± 0.067 for the second.

P24V and V45F are within error of each other in abundance fitness: -0.386 ± 0.058 for the first, -0.243 ± 0.12 for the second.

V45Q and V45Y are within error of each other in abundance fitness: -0.296 ± 0.18 for the first, -0.653 ± 0.29 for the second.

V45W and N37S are within error of each other in abundance fitness: -0.055 ± 0.14 for the first, -0.046 ± 0.075 for the second.

N37A and N37R are within error of each other in abundance fitness: -0.035 ± 0.089 for the first, -0.063 ± 0.076 for the second.

Compared with N37V, N37G is higher in abundance fitness: -0.456 ± 0.097 for the first, 0.081 ± 0.075 for the second.

N37L and N37C are within error of each other in abundance fitness: -0.241 ± 0.093 for the first, -0.252 ± 0.12 for the second.

N37I and E28G are within error of each other in abundance fitness: -0.326 ± 0.22 for the first, -0.592 ± 0.087 for the second.

E28A and E28T are within error of each other in abundance fitness: -0.157 ± 0.14 for the first, -0.088 ± 0.14 for the second.

Going from E28I to E28S, the abundance fitness falls from -0.02 ± 0.2 to -0.321 ± 0.088.

Going from E28W to H17E, the abundance fitness rises from -0.692 ± 0.15 to 0.064 ± 0.072.

H17I and H17W are within error of each other in abundance fitness: -0.028 ± 0.12 for the first, 0.011 ± 0.068 for the second.

First: H17P
Second: A16E
The abundance fitness of the first is lower: -0.961 ± 0.25 for the first, -0.002 ± 0.076 for the second.

Compared with A16L, A16D is higher in abundance fitness: -0.054 ± 0.066 for the first, 0.113 ± 0.094 for the second.

A16I and A16S are within error of each other in abundance fitness: -0.183 ± 0.13 for the first, -0.16 ± 0.073 for the second.

Going from A16Q to A16P, the abundance fitness falls from 0.019 ± 0.12 to -0.865 ± 0.21.

A16W and A16G are within error of each other in abundance fitness: -0.164 ± 0.065 for the first, -0.049 ± 0.05 for the second.

F47R and F47Q are within error of each other in abundance fitness: -0.949 ± 0.06 for the first, -0.807 ± 0.12 for the second.

F47P and F47D are within error of each other in abundance fitness: -0.775 ± 0.1 for the first, -0.762 ± 0.13 for the second.

F47H and F47K are within error of each other in abundance fitness: -0.913 ± 0.16 for the first, -0.722 ± 0.11 for the second.

Compared with F47N, L36S is higher in abundance fitness: -1.08 ± 0.19 for the first, -0.6 ± 0.21 for the second.

G26K and G26L are within error of each other in abundance fitness: -0.114 ± 0.14 for the first, -0.054 ± 0.1 for the second.

G26R and G26S are within error of each other in abundance fitness: -0.032 ± 0.08 for the first, -0.08 ± 0.12 for the second.

Compared with G26A, G26Q is lower in abundance fitness: 0.035 ± 0.11 for the first, -0.415 ± 0.23 for the second.

G26I and L11E are within error of each other in abundance fitness: -0.02 ± 0.18 for the first, -0.002 ± 0.12 for the second.

First: L11Y
Second: L11P
The abundance fitness of the first is higher: -0.339 ± 0.21 for the first, -1.01 ± 0.24 for the second.

L11C and L11S are within error of each other in abundance fitness: -0.409 ± 0.14 for the first, -0.283 ± 0.1 for the second.

L11V and K55N are within error of each other in abundance fitness: 0.053 ± 0.095 for the first, -0.186 ± 0.27 for the second.

K55R and K55G are within error of each other in abundance fitness: 0.001 ± 0.31 for the first, -0.226 ± 0.42 for the second.

A53M and A53H are within error of each other in abundance fitness: 0.034 ± 0.19 for the first, 0.012 ± 0.24 for the second.

A53E and A53Y are within error of each other in abundance fitness: -0.105 ± 0.27 for the first, -0.018 ± 0.21 for the second.

A53V and A53F are within error of each other in abundance fitness: -0.2 ± 0.13 for the first, -0.267 ± 0.16 for the second.

A53N and A53C are within error of each other in abundance fitness: 0.046 ± 0.31 for the first, -0.215 ± 0.12 for the second.

A53T and A53Q are within error of each other in abundance fitness: -0.157 ± 0.13 for the first, 0.042 ± 0.13 for the second.

A53W and A53K are within error of each other in abundance fitness: -0.089 ± 0.14 for the first, -0.167 ± 0.27 for the second.

N15A and N15M are within error of each other in abundance fitness: -0.247 ± 0.11 for the first, -0.132 ± 0.11 for the second.

First: N15V
Second: N15I
The abundance fitness of the first is higher: -0.307 ± 0.087 for the first, -0.78 ± 0.38 for the second.

N15S and C48G are within error of each other in abundance fitness: -0.193 ± 0.12 for the first, -0.008 ± 0.12 for the second.

C48Q and C48V are within error of each other in abundance fitness: 0.279 ± 0.38 for the first, 0.124 ± 0.36 for the second.

C48Y and C48R are within error of each other in abundance fitness: -0.062 ± 0.17 for the first, -0.057 ± 0.19 for the second.

C48F and C48S are within error of each other in abundance fitness: -0.5 ± 0.43 for the first, 0.039 ± 0.16 for the second.

Going from E12S to E12K, the abundance fitness falls from -0.009 ± 0.12 to -0.695 ± 0.4.

E12Q and E12C are within error of each other in abundance fitness: -0.298 ± 0.28 for the first, -0.261 ± 0.15 for the second.

Q27E and Q27T are within error of each other in abundance fitness: 0.05 ± 0.11 for the first, 0.022 ± 0.11 for the second.

Going from Q27A to Q27M, the abundance fitness falls from -0.063 ± 0.097 to -0.39 ± 0.16.

Going from Q27W to Q27H, the abundance fitness rises from -0.142 ± 0.086 to 0.243 ± 0.25.

Q27P and Q27K are within error of each other in abundance fitness: -0.005 ± 0.17 for the first, 0.131 ± 0.15 for the second.

Q27S and V42R are within error of each other in abundance fitness: -0.071 ± 0.084 for the first, -0.176 ± 0.082 for the second.

V42W and V42I are within error of each other in abundance fitness: -0.151 ± 0.08 for the first, -0.117 ± 0.13 for the second.

Going from V42D to F18K, the abundance fitness falls from -0.012 ± 0.1 to -0.927 ± 0.19.

F18I and F18S are within error of each other in abundance fitness: -0.562 ± 0.31 for the first, -0.593 ± 0.091 for the second.

F18H and F18Q are within error of each other in abundance fitness: -0.698 ± 0.2 for the first, -0.937 ± 0.24 for the second.

F18M and F18T are within error of each other in abundance fitness: -0.76 ± 0.15 for the first, -0.961 ± 0.21 for the second.

Going from F18G to F18W, the abundance fitness rises from -0.848 ± 0.063 to -0.086 ± 0.071.

Going from T7V to T7F, the abundance fitness falls from -0.403 ± 0.098 to -0.867 ± 0.26.

T7S and T7A are within error of each other in abundance fitness: -0.042 ± 0.09 for the first, -0.2 ± 0.18 for the second.

First: T7P
Second: T7L
The abundance fitness of the first is higher: 0.04 ± 0.13 for the first, -0.288 ± 0.08 for the second.

Q9S and Q9T are within error of each other in abundance fitness: -0.207 ± 0.096 for the first, -0.106 ± 0.18 for the second.

Compared with Q9D, S25W is lower in abundance fitness: -0.12 ± 0.15 for the first, -0.92 ± 0.21 for the second.

First: S25E
Second: S25G
The abundance fitness of the first is lower: -0.383 ± 0.2 for the first, -0.051 ± 0.098 for the second.

S25R and S25V are within error of each other in abundance fitness: -0.125 ± 0.092 for the first, -0.207 ± 0.098 for the second.

Going from K20A to K20P, the abundance fitness falls from -0.064 ± 0.073 to -0.936 ± 0.16.

K20Y and K20E are within error of each other in abundance fitness: -0.224 ± 0.12 for the first, -0.007 ± 0.099 for the second.

First: K20Q
Second: L14C
The abundance fitness of the first is higher: -0.17 ± 0.13 for the first, -0.734 ± 0.19 for the second.

L14N and L14A are within error of each other in abundance fitness: -1.06 ± 0.34 for the first, -0.969 ± 0.14 for the second.

L14T and L14I are within error of each other in abundance fitness: -0.936 ± 0.19 for the first, -0.898 ± 0.23 for the second.

Compared with L14P, R2I is higher in abundance fitness: -0.852 ± 0.21 for the first, -0.059 ± 0.12 for the second.

R2W and R2H are within error of each other in abundance fitness: -0.334 ± 0.087 for the first, -0.144 ± 0.26 for the second.

T4L and T4E are within error of each other in abundance fitness: -0.063 ± 0.079 for the first, 0.045 ± 0.11 for the second.

T4A and R40P are within error of each other in abundance fitness: -0.09 ± 0.079 for the first, -0.003 ± 0.13 for the second.

R40K and R40G are within error of each other in abundance fitness: 0.001 ± 0.092 for the first, 0.069 ± 0.071 for the second.

R40A and R40S are within error of each other in abundance fitness: 0.024 ± 0.084 for the first, -0.034 ± 0.069 for the second.

R40V and K35S are within error of each other in abundance fitness: -0.013 ± 0.073 for the first, -0.047 ± 0.091 for the second.

K35Y and K35E are within error of each other in abundance fitness: -0.088 ± 0.21 for the first, -0.154 ± 0.18 for the second.

K35C and K35R are within error of each other in abundance fitness: -0.186 ± 0.12 for the first, -0.053 ± 0.093 for the second.

Going from K35F to K35P, the abundance fitness falls from -0.194 ± 0.14 to -0.883 ± 0.26.

K35M and L54S are within error of each other in abundance fitness: -0.062 ± 0.11 for the first, -0.065 ± 0.1 for the second.

L54K and L54H are the same in abundance fitness: -0.159 ± 0.16 for the first, -0.159 ± 0.22 for the second.

L54D and L54M are within error of each other in abundance fitness: -0.182 ± 0.31 for the first, -0.106 ± 0.19 for the second.

Compared with L54A, K50C is lower in abundance fitness: -0.002 ± 0.14 for the first, -0.662 ± 0.25 for the second.

Compared with K50D, K50T is higher in abundance fitness: -0.946 ± 0.17 for the first, -0.201 ± 0.12 for the second.

K50N gave an abundance fitness of -0.222 ± 0.27.
